Biological target: the molecule itself
Test: crystal structure; pre-TS cleavage Mos1 paired-end complex: T216A/D249A transposase mixed equimolar with ds IR DNA substrate; hanging-drop vapour diffusion, 100 mM ammonium acetate, 20 mM MgCl2, 50 mM HEPES pH 7.0, 5% PEG 8000; 3.09 Å, C222(1)

B1: T216A/D249A Mos1 transposase double mutant (enzyme)
chain: MSSFVPNKEQTRTVLIFCFHLKKTAAESHRMLVEAFGEQVPTVKKCERWFQRFKSGDFDVDDKEHGKPPKRYEDAELQALLDEDDAQTQKQLAEQLEVSQQAVSNRLREMGKIQKVGRWVPHELNERQMERRKNTCEILLSRYKRKSFLHRIVTGDEKWIFFVSPKRKKSYVDPGQPATSTARPNRFGKKTMLCVWWDQSGVIYYELLKRGETVNAARYQQQLINLNRALQRKRPEYQKRQHRVIFLHANAPSHTARAVRDTLETLNWEVLPHAAYSPDLAPSDYHLFASMGHALAEQRFDSYESVKKWLDEWFAAKDDEFYWRGIHKLPERWEKCVASDGKY
notes: mariner Mos1 transposase, from the codon-optimized Mos1 gene; T216A allows soluble expression in E. coli, D249A is the active site mutation; Crystallised as a paired-end complex (PEC): a transposase dimer with two DNA substrates (33 nt transferred strand, 25 nt non-transferred strand); PDB 3HOS is the post-cleavage PEC of the parent transposase, without D249A; also called T216A/D249A mutant …
- stoichiometry N: 2
